Test results: article PMC7267773, “CCDC61/VFL3 Is a Paralog of SAS6 and Promotes Ciliary Functions” (Structure(London, England:1993), 2020)

B1: N-terminal head domain of human CCDC61 (hCCDC61^1-143) [human] / itself (parent)
chain: GSMDQPAGLQVDYVFRGVEHAVRVMVSGQVLELEVEDRMTADQWRGEFDAGFIEDLTHKTGNFKQFNIFCHMLESALTQSSESVTLDLLTYTDLESLRNRKMGGRPGSLAPRSAQLNSKRYLILIYSVEFDRIHYPLPLPYQGKP

Variants of: B1
Assay: analytical ultracentrifugation (AUC)
Settings: with itself

Row | Variant | screen value [kDa]
1 | chain 1 F130E D131A | 16
